T1: human GITR (human, UniProt Q9Y5U5 26-161, limits assumed)
T1 sequence (looked up): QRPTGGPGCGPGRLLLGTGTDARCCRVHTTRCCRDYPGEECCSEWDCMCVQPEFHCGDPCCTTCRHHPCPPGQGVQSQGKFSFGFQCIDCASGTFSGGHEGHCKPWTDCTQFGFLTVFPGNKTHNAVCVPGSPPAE

T2: human OX40 (human, UniProt P43489 29-216)
T2 sequence (looked up): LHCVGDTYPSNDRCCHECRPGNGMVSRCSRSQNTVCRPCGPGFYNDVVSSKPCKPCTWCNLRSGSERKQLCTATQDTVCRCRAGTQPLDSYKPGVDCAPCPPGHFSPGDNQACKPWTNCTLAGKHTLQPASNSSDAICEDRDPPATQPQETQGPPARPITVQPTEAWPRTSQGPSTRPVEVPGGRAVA

T3: cCD137-mFc-Avi (cynomolgus; mouse)
T3 construct: also called cynomolgus CD137-mFc-Avi; Cyno CD137-mFc-Avi; not shown: mouse IgG2a Fc domain (mIgG2a Fc)
T3 chain: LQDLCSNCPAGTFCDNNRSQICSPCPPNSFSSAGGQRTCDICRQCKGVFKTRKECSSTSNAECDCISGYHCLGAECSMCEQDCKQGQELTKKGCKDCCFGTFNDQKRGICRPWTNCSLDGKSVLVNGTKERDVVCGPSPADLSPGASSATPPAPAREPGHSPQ


Key:
[1] = molecular target: T4, biotinylated hPD-L1-Avi-His (Acro Biosystems, PD1-H82E5) (human, UniProt Q9NZQ7 19-238, biotinylated); assay: SPR, antibody captured on Protein A chip, antigen in flow
T4 construct: bought; also called Human PD-L1-His; not shown: Avi and His tags of the bought product

[2] = molecular target: T5, cPD-L1-His (Acro Biosystems, PD1-C52H4) (cynomolgus, UniProt Q9NZQ7 19-238 (human entry)); assay: as above
T5 construct: bought; also called Cyno PD-L1-His; Cynomolgus PD-L1-His; not shown: His tag of the bought product

[3] = molecular target: human CD137, cell-surface (human, UniProt Q07011 24-255); assay: cell-based or functional assay
human CD40 = human CD40 (human, UniProt P25942 21-193, limits assumed); assay: SPR, receptor amine-coupled to CM5 (~1000 RU)
Protocol: (§1) The specificity of the anti-human CD137 Fcabs for human CD137 compared to other related TNFSFR family members was tested. 8 of the Fcabs were tested in mock mAb² (HeID1.3) format and measured by SPR in a Biacore T200 (GE Healthcare) by testing for binding to other human TNFRSF receptors: CD40, OX40 and GITR. Amine coupling (amine coupling kit, GE Healthcare, BR-1000-50) was used to coat human CD40, GITR and OX40 to approximately 1000 RU in Biacore CM5 chips (GE Healthcare, cat no 29149603). […] The chip was regenerated by injection of 10 mM glycine pH 2.5 for 12 s at 30 μl/min. Antibodies specific to the different TNFRSF members were used as positive controls to verify Biacore chip coating. Data was double reference subtracted and analysed using BIAevaluation 3.2 software.

human GITR = molecular target: T1, human GITR; assay: SPR, receptor amine-coupled to CM5 (~1000 RU)
Protocol: as §1

human OX40 = molecular target: T2, human OX40; assay: SPR, receptor amine-coupled to CM5 (~1000 RU)
Protocol: as §1

hCD137-mFc-Avi = molecular target: T6, hCD137-mFc-Avi (human; mouse, UniProt Q07011 24-186, biotin on the Avi sequence where the biotinylated form was used); assay: SPR, mAb^2 captured by anti-human Fab, antigen in flow, 1:1 Langmuir fit
T6 construct: also called human CD137-mFc-Avi; dimeric human CD137; not shown: mouse IgG2a Fc domain (mIgG2a Fc)
Protocol: (§2) An anti-human Fab capture antibody was immobilised on all four flow cells of a CM5 series S chip (GE Healthcare #BR-1005-30) to an average surface density of 6000 RU following the manufacturer's recommendations (GE Healthcare, human Fab capture Kit, #28958325). […] Each mAb² was captured to approximately 150 RU by injecting a 3 μg/ml solution of mAb² diluted in HBS-EP+ buffer (GE Healthcare #BR1006-69) for 60 seconds at 30 μl/min. Then different concentrations of human, cyno or mouse CD137 antigen (unbiotinylated human, cyno or mouse CD137-mFc-Avi or human CD137-Avi-His) in HBS-EP+ buffer were flowed over the chip for 3 min at 60 μl/min and then allowed to dissociate for 10 minutes. After each antigen concentration the chip was regenerated by infecting 10 mM glycine pH 2.1 at a flow rate of 30 μl/min for 30 seconds. Buffer HBS-EP+ was injected before the highest concentration of antigen and after the lowest concentration of antigen for reference subtraction, and one of the concentrations at random was repeated twice. The binding kinetics were fit with a 1:1 Langmuir model to generate equilibrium binding constants (KD) for each sample. Data analysis was performed with BiaEvaluation software version 3.2.

cCD137-mFc-Avi = molecular target: T3, cCD137-mFc-Avi; assay: as above
Protocol: as §2

hCD137-Avi-His = molecular target: T7, hCD137-Avi-His (human, UniProt Q07011 24-186); assay: as above
T7 construct: also called human CD137-Avi-His; monomeric human CD137
Protocol: as §2

human CD40, sequence (P25942 21-193 limits assumed): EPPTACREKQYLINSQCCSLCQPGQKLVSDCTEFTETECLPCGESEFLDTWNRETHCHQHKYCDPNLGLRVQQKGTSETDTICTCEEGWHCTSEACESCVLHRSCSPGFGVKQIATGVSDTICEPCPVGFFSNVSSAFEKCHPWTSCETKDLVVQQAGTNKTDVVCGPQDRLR
T7 sequence (Q07011 24-186): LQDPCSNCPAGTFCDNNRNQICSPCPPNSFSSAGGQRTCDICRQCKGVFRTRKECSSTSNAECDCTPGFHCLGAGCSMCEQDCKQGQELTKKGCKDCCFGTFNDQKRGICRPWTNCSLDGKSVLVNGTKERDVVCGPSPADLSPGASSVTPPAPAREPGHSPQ
T6 sequence (Q07011 24-186): as above
human CD137, cell-surface, sequence (Q07011 24-255): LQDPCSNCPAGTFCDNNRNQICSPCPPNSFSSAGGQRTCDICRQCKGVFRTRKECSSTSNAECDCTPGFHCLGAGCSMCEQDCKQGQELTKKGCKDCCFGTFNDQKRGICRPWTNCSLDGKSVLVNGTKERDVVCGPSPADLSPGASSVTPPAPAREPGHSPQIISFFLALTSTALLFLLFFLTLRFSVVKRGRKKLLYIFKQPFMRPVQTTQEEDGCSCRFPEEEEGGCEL
T4 sequence (Q9NZQ7 19-238): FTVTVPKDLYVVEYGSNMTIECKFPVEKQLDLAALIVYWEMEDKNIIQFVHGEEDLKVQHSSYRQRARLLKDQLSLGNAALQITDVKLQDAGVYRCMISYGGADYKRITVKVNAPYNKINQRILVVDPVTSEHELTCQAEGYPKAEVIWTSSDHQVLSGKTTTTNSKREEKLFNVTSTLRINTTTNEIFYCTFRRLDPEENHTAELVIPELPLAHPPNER
T5 sequence (Q9NZQ7 other isoform, or with tags, fused parts or gaps): as the sequence (Q9NZQ7 19-238) above, with A33T, A34S, S62N, R68Q, Q82R, F173L, T185A, T192I, H215L counted along it

Kd [1] [nM] | Kd [2] [nM] | EC50, NF-κB luciferase assay, crosslinked with Protein L (+XL) [3] [nM] | binding result (human CD40) | binding result (human GITR) | binding result (human OX40) | Kd (hCD137-mFc-Avi) [nM] | Kd (cCD137-mFc-Avi) [nM] | Human monomeric CD137 KD fold difference relative to human dimeric KD (hCD137-Avi-His) [fold] | Binder
1.34 | 2.45 |  |  |  |  |  |  |  | G1-AA/lam-G02v3 (antibody, human IgG1, L234A L235A, V domains shown, anti-PD-L1 IgG1 with LALA, lambda light chain; also called G1-AA/lambdav3; G1-AA/Iam-G02v3) VH: EVQLVQSGAEVKRPGASVKVSCKASGYTFTSYGISWVRQAPGQGLEWMGWISAYSGGTNYAQKLQGRVTMTTDTSTSTAYMELRSLRSDDTAVYYCARDLFPTIFGVSYYYYWGQGTLVTVSS VL: QSALTQPASVSGSPGQSITISCTGTSSDVGGYNYVSWYQQFPGKAPKLMIFEVTNRPSGVSDRFSGSKSDNTASLTISGLQAEDEAEYYCSSFKRGSTLVVFG
0.5 | 0.89 |  |  |  |  |  |  |  | G1-AA/E05v2 (antibody, human IgG1, kappa, L234A L235A, V domains shown, anti-PD-L1 IgG1 with LALA) VH: EVQLVQSGAEVKRPGASVKVSCKASGYTFTSYGISWVRQAPGQGLEWMGWISAYSGGTNYAQKLQGRVTMTTDTSTSTAYMELRSLRSDDTAVYYCARDLFPTIFGVSYYYYWGQGTLVTVSS VL: DIQMTQSPSTLSASVGDRVTITCRASQSISGRLAWYQQKPGKAPNLLIYEASNLESGVPSRFSGSGSGTEFTLTISSLQPEDFATYYCQQSYSTPRVTFGQGTKVEIKR
 |  | 26.3 | no binding (tested: 1 µM) | no binding (tested: 1 µM) | no binding (tested: 1 µM) | 4.2 | 0.9 | 170 | FS22-053-008/HeID1.3 (bispecific antibody, human IgG1, kappa, mock mAb^2; also called FS22-053-008 (mock mAb^2 format)) heavy: QVQLQESGPGLVRPSQTLSLTCTVSGSTFSGYGVNWVRQPPGRGLEWIGMIWGDGNTDYNSALKSRVTMLVDTSKNQFSLRLSSVTAADTAVYYCARERDYRLDYWGQGSLVTVSSASTKGPSVFPLAPSSKSTSGGTAALGCLVKDYFPEPVTVSWNSGALTSGVHTFPAVLQSSGLYSLSSVVTVPSSSLGTQTYICNVNHKPSNTKVDKKVEPKSCDKTHTCPPCPAPELLGGPSVFLFPPKPKDTLMISRTPEVTCVVVDVSHEDPEVKFNWYVDGVEVHNAKTKPREEQYNSTYRVVSVLTVLHQDWLNGKEYKCKVSNKALPAPIEKTISKAKGQPREPQVYTLPPSRDELNPPYLFSNQVSLTCLVKGFYPSDIAVEWESNGQPENNYKTTPPVLDSDGSFFLYSKLTVDYWRWLEGNVFSCSVMHEALHNHYTQKSLSLSPG light: DIQMTQSPASLSASVGETVTITCRASGNIHNYLAWYQQKQGKSPQLLVYNAKTLADGVPSRFSGSGSGTQYSLKINSLQPEDFGSYYCQHFWSTPRTFGGGTKLEIKRTVAAPSVFIFPPSDEQLKSGTASVVCLLNNFYPREAKVQWKVDNALQSGNSQESVTEQDSKDSTYSLSSTLTLSKADYEKHKVYACEVTHQGLSSPVTKSFNRGEC
 |  |  | no binding (tested: 1 µM) | no binding (tested: 1 µM) | no binding (tested: 1 µM) | 4.3 | 3.5 | > 200 | FS22-172-004/HeID1.3 (bispecific antibody, human IgG1, kappa, mock mAb^2) heavy: QVQLQESGPGLVRPSQTLSLTCTVSGSTFSGYGVNWVRQPPGRGLEWIGMIWGDGNTDYNSALKSRVTMLVDTSKNQFSLRLSSVTAADTAVYYCARERDYRLDYWGQGSLVTVSSASTKGPSVFPLAPSSKSTSGGTAALGCLVKDYFPEPVTVSWNSGALTSGVHTFPAVLQSSGLYSLSSVVTVPSSSLGTQTYICNVNHKPSNTKVDKKVEPKSCDKTHTCPPCPAPELLGGPSVFLFPPKPKDTLMISRTPEVTCVVVDVSHEDPEVKFNWYVDGVEVHNAKTKPREEQYNSTYRVVSVLTVLHQDWLNGKEYKCKVSNKALPAPIEKTISKAKGQPREPQVYTLPPSRDELNYIYPPYNQVSLTCLVKGFYPSDIAVEWESNGQPENNYKTTPPVLDSDGSFFLYSKLTVGADRWLEGNVFSCSVMHEALHNHYTQKSLSLSPG light: DIQMTQSPASLSASVGETVTITCRASGNIHNYLAWYQQKQGKSPQLLVYNAKTLADGVPSRFSGSGSGTQYSLKINSLQPEDFGSYYCQHFWSTPRTFGGGTKLEIKRTVAAPSVFIFPPSDEQLKSGTASVVCLLNNFYPREAKVQWKVDNALQSGNSQESVTEQDSKDSTYSLSSTLTLSKADYEKHKVYACEVTHQGLSSPVTKSFNRGEC
 |  |  | no binding (tested: 1 µM) | no binding (tested: 1 µM) | no binding (tested: 1 µM) | 5.5 | 1.3 | > 200 | FS22-053-011/HeID1.3 (bispecific antibody, human IgG1, kappa, mock mAb^2; also called FS22-053-011 (mock mAb^2 format)) heavy: QVQLQESGPGLVRPSQTLSLTCTVSGSTFSGYGVNWVRQPPGRGLEWIGMIWGDGNTDYNSALKSRVTMLVDTSKNQFSLRLSSVTAADTAVYYCARERDYRLDYWGQGSLVTVSSASTKGPSVFPLAPSSKSTSGGTAALGCLVKDYFPEPVTVSWNSGALTSGVHTFPAVLQSSGLYSLSSVVTVPSSSLGTQTYICNVNHKPSNTKVDKKVEPKSCDKTHTCPPCPAPELLGGPSVFLFPPKPKDTLMISRTPEVTCVVVDVSHEDPEVKFNWYVDGVEVHNAKTKPREEQYNSTYRVVSVLTVLHQDWLNGKEYKCKVSNKALPAPIEKTISKAKGQPREPQVYTLPPSRDELNPPYLFSNQVSLTCLVKGFYPSDIAVEWESNGQPENNYKTTPPVLDSDGSFFLYSKLTVDYWRWTDGNVFSCSVMHEALHNHYTQKSLSLSPG light: DIQMTQSPASLSASVGETVTITCRASGNIHNYLAWYQQKQGKSPQLLVYNAKTLADGVPSRFSGSGSGTQYSLKINSLQPEDFGSYYCQHFWSTPRTFGGGTKLEIKRTVAAPSVFIFPPSDEQLKSGTASVVCLLNNFYPREAKVQWKVDNALQSGNSQESVTEQDSKDSTYSLSSTLTLSKADYEKHKVYACEVTHQGLSSPVTKSFNRGEC
 |  | 32.6 | no binding (tested: 1 µM) | no binding (tested: 1 µM) | no binding (tested: 1 µM) | 1.5 | 1.3 | > 200 | FS22-172-003/HeID1.3 (bispecific antibody, human IgG1, kappa, mock mAb^2 without LALA) heavy: QVQLQESGPGLVRPSQTLSLTCTVSGSTFSGYGVNWVRQPPGRGLEWIGMIWGDGNTDYNSALKSRVTMLVDTSKNQFSLRLSSVTAADTAVYYCARERDYRLDYWGQGSLVTVSSASTKGPSVFPLAPSSKSTSGGTAALGCLVKDYFPEPVTVSWNSGALTSGVHTFPAVLQSSGLYSLSSVVTVPSSSLGTQTYICNVNHKPSNTKVDKKVEPKSCDKTHTCPPCPAPELLGGPSVFLFPPKPKDTLMISRTPEVTCVVVDVSHEDPEVKFNWYVDGVEVHNAKTKPREEQYNSTYRVVSVLTVLHQDWLNGKEYKCKVSNKALPAPIEKTISKAKGQPREPQVYTLPPSRDELPYIIPPYNQVSLTCLVKGFYPSDIAVEWESNGQPENNYKTTPPVLDSDGSFFLYSKLTVGADRWLEGNVFSCSVMHEALHNHYTQKSLSLSPG light: DIQMTQSPASLSASVGETVTITCRASGNIHNYLAWYQQKQGKSPQLLVYNAKTLADGVPSRFSGSGSGTQYSLKINSLQPEDFGSYYCQHFWSTPRTFGGGTKLEIKRTVAAPSVFIFPPSDEQLKSGTASVVCLLNNFYPREAKVQWKVDNALQSGNSQESVTEQDSKDSTYSLSSTLTLSKADYEKHKVYACEVTHQGLSSPVTKSFNRGEC

Source: patent publication US20250346679A1 (INVOX PHARMA, published 2025)
